# Results published in publication PMC10397247.
# T1: 4H3497-bH
# T1 chain: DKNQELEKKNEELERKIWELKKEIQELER
# T2: 4H3462-bH
# T2 chain: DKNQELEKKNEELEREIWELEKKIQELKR
# T3: 4H3926-bH
# T3 chain: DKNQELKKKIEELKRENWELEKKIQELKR
# T4: 4H850-bH
# T4 chain: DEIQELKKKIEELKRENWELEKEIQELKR
# T5: 4H3628-bH
# T5 chain: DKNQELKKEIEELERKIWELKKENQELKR
# T6: 4H3414-bH
# T6 chain: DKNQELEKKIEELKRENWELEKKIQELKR
# T7: 4H3974-bH
# T7 chain: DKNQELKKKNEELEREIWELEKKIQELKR
# T8: 4H591-bH
# T8 chain: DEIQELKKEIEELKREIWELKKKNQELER
# T9: 4H3162-bH
# T9 chain: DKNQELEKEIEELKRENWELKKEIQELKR
# T10: 4H626-bH
# T10 chain: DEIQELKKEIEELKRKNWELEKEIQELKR
# T11: 4H1899-bH
# T11 chain: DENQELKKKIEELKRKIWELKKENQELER
# T12: 4H3175-bH
# T12 chain: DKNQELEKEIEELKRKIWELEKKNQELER
# T13: 4H1985-bH
# T13 chain: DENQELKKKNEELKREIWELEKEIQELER
# T14: 4H3817-bH
# T14 chain: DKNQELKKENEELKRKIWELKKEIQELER
# T15: 4H906-bH
# T15 chain: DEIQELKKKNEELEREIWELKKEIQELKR
# T16: 4H570-bH
# T16 chain: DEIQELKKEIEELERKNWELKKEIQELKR
# T17: 4H3298-bH
# T17 chain: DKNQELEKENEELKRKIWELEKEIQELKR
# T18: 4H3277-bH
# T18 chain: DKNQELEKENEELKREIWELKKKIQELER
# T19: 4H3613-bH
# T19 chain: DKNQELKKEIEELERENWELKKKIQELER
# T20: 4H3628-bN
# T20 chain: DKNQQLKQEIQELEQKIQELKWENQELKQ
# T21: 4H3858-bH
# T21 chain: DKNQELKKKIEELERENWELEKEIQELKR
# T22: AP4-AA
# T22 chain: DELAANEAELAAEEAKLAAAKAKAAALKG
# T23: P4-AA
# T23 chain: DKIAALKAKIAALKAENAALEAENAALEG
# T24: AP6-AA
# T24 chain: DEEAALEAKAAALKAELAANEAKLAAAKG
# T25: P3-AA
# T25 chain: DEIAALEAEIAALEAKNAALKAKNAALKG
# T26: P12-AA
# T26 chain: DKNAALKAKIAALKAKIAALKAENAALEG
# T27: P10-AA
# T27 chain: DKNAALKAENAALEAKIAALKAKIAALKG
# T28: P9-AA
# T28 chain: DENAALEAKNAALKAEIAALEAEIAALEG
# T29: AP2-AA
# T29 chain: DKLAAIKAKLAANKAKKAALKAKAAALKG
# T30: AP3-AA
# T30 chain: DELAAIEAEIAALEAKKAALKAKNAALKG
# T31: AP8-AA
# T31 chain: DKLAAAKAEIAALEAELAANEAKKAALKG
# T32: P8-AA
# T32 chain: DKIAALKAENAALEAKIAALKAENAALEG
# T33: AP5-AA
# T33 chain: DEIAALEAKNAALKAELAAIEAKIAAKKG
# T34: P1-AA
# T34 chain: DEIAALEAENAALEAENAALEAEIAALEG
# T35: P2-AA
# T35 chain: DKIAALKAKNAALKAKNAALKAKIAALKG
# T36: P7-AA
# T36 chain: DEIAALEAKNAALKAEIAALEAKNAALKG
# T37: AP7-AA
# T37 chain: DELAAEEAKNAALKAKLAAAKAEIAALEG
# T38: P11-AA
# T38 chain: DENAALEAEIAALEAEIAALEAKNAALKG
# Tests used:
# [1] = target: T1, 4H3497-bH; assay: two-hybrid library CCNG1;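 further: natural log of median RNA to DNA barcode read ratio; higher means stronger binding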
# [2] = target: T2, 4H3462-bH; assay: two-hybrid library CCNG1;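 further: natural log of median RNA to DNA barcode read ratio; higher means stronger binding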
# [3] = target: T3, 4H3926-bH; assay: two-hybrid library CCNG1;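 further: natural log of median RNA to DNA barcode read ratio; higher means stronger binding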
# [4] = target: T4, 4H850-bH; assay: two-hybrid library CCNG1;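 further: natural log of median RNA to DNA barcode read ratio; higher means stronger binding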
# [5] = target: T5, 4H3628-bH; assay: two-hybrid library CCNG1
# [6] = target: T6, 4H3414-bH; assay: two-hybrid library CCNG1
# [7] = target: T7, 4H3974-bH; assay: two-hybrid library CCNG1
# [8] = target: T8, 4H591-bH; assay: two-hybrid library CCNG1
# [9] = target: T9, 4H3162-bH; assay: two-hybrid library CCNG1
# [10] = target: T10, 4H626-bH; assay: two-hybrid library CCNG1
# [11] = target: T11, 4H1899-bH; assay: two-hybrid library CCNG1
# [12] = target: T12, 4H3175-bH; assay: two-hybrid library CCNG1
# [13] = target: T13, 4H1985-bH; assay: two-hybrid library CCNG1
# [14] = target: T14, 4H3817-bH; assay: two-hybrid library CCNG1
# [15] = target: T15, 4H906-bH; assay: two-hybrid library CCNG1
# [16] = target: T16, 4H570-bH; assay: two-hybrid library CCNG1
# [17] = target: T17, 4H3298-bH; assay: two-hybrid library CCNG1
# [18] = target: T18, 4H3277-bH; assay: two-hybrid library CCNG1
# [19] = target: T19, 4H3613-bH; assay: two-hybrid library CCNG1
# [20] = target: T20, 4H3628-bN; assay: two-hybrid library CCNG1
# [21] = target: T21, 4H3858-bH; assay: two-hybrid library CCNG1
# [22] = target: T22, AP4-AA; assay: two-hybrid library CCmax; settings: mean of both orientations
# [23] = target: T23, P4-AA; assay: two-hybrid library CCmax; settings: mean of both orientations
# [24] = target: T24, AP6-AA; assay: two-hybrid library CCmax; settings: mean of both orientations
# [25] = target: T25, P3-AA; assay: two-hybrid library CCmax; settings: mean of both orientations
# [26] = target: T26, P12-AA; assay: two-hybrid library CCmax; settings: mean of both orientations
# [27] = target: T27, P10-AA; assay: two-hybrid library CCmax; settings: mean of both orientations
# [28] = target: T28, P9-AA; assay: two-hybrid library CCmax; settings: mean of both orientations
# [29] = target: T29, AP2-AA; assay: two-hybrid library CCmax
# [30] = target: T30, AP3-AA; assay: two-hybrid library CCmax; settings: mean of both orientations
# [31] = target: T31, AP8-AA; assay: two-hybrid library CCmax; settings: mean of both orientations
# [32] = target: GCN2_T; assay: two-hybrid library CCmax
# [33] = target: T32, P8-AA; assay: two-hybrid library CCmax; settings: mean of both orientations
# [34] = target: T33, AP5-AA; assay: two-hybrid library CCmax; settings: mean of both orientations
# [35] = target: T34, P1-AA; assay: two-hybrid library CCmax; settings: mean of both orientations
# [36] = target: T35, P2-AA; assay: two-hybrid library CCmax; settings: mean of both orientations
# [37] = target: T36, P7-AA; assay: two-hybrid library CCmax; settings: mean of both orientations
# [38] = target: T37, AP7-AA; assay: two-hybrid library CCmax
# [39] = target: T38, P11-AA; assay: two-hybrid library CCmax; settings: mean of both orientations
binder,measurement,setting,value
DENQELKKKIEELKRKIWELKKENQELER [4H1899-bH],interaction score,[1],0.766
same,interaction score,[2],0.0285
same,interaction score,[3],-0.236
same,interaction score,[4],-0.44
same,interaction score,[5],1.19
same,interaction score,[6],-0.169
same,interaction score,[7],0.298
same,interaction score,[8],-0.968
same,interaction score,[9],-0.289
same,interaction score,[10],-1.98
same,interaction score,[11],0.337
same,interaction score,[12],0.0491
same,interaction score,[13],1.05
same,interaction score,[14],0.356
same,interaction score,[15],-0.666
same,interaction score,[16],-1.69
same,interaction score,[17],-0.203
same,interaction score,[18],-0.392
same,interaction score,[19],-0.355
same,interaction score,[20],0.735
same,interaction score,[21],-0.0187
DKLAAIKAKLAANKAKKAALKAKAAALKG [AP2-AA],interaction score,[22],-1.62
same,interaction score,[23],-1.83
same,interaction score,[24],-1.74
same,interaction score,[25],-1.95
same,interaction score,[26],-1.59
same,interaction score,[27],-1.76
same,interaction score,[28],-1.65
same,interaction score,[29],-2.11
same,interaction score,[30],-2.09
same,interaction score,[31],-1.71
same,interaction score,[32],-1.81
same,interaction score,[33],-1.86
same,interaction score,[34],-1.24
same,interaction score,[35],0.511
same,interaction score,[36],-1.94
same,interaction score,[37],-1.75
same,interaction score,[38],-1.6
same,interaction score,[39],-0.526
